Data on 3 molecules can be found in patent publication US10966923.

Bounds are passed on as bounds.

One assay addresses VEGF (UniProt P15692). The experiment in a line: VEGF incubated with particles, particulate spun out, free VEGF in the supernatant measured by ELISA.
The target of assay [1] is AB160 (nanoparticle of albumin-bound paclitaxel and bevacizumab, ratio about 10:4, average particle size 160 nm) (UniProt P02768). In words: flow cytometry of particles stained with goat anti-mouse IgG and PE. In general terms: A flow cytometer gives signals particle by particle.
Assay [2] deals with Abraxane (albumin-bound paclitaxel) (UniProt P02768). In words: flow cytometry of particles stained with goat anti-mouse IgG and PE; ABX alone as comparison.
In assay [3] the target is T1, Abraxane (albumin-bound paclitaxel) (UniProt P02768 25-609).
T1 construct: also called ABX; Paclitaxel Albumin-stabilized Nanoparticle Formulation
In words: VEGF incubated with particles, particulate spun out, free VEGF in the supernatant measured by ELISA.
Procedure: The VEGF was incubated with the nanoparticles for 2 hours at room temperature. The suspension was spun at 6000 rpm for 15 minutes, supernatants were collected and free VEGF was measured by ELISA. Briefly, ELISA plates were coated with capture antibody overnight at 4° C. Plates were washed, blocked and standards and samples were added. After washing, detection antibody was added and plates were developed with substrate (R and D Systems, Minneapolis, Minn.). […] The concentration of unbound VEGF was determined with a standard curve from 0 to 2000 pg/ml.

As for “AB160 (nanoparticle of albumin-bound paclitaxel and bevacizumab, ratio about 10:4, average particle size 160 nm) (from UniProt P02768 25-609)”, in the assay with VEGF, the % VEGF unbound is below 10%. As for goat anti-mouse IgG (antibody), the % positive worked out at 41.2% in assay [1] and 6.7% in assay [2].

B1: VEGF (ligand, UniProt P15692-4 27-191, looked up)
chain: APMAEGGGQNHHEVVKFMDVYQRSYCHPIETLVDIFQEYPDEIEYIFKPSCVPLMRCGGCCNDEGLECVPTEESNITMQIMRIKPHQGQHIGEMSFLQHNKCECRPKKDRARQENPCGPCSERRKHLFVQDPQTCKCSCKNTDSRCKARQLELNERTCRCDKPRR
notes: Soluble VEGF
As to B1, the binding result in assay [3] is “no binding (tested: 2000 pg/ml VEGF)”.
